Results taken from paper PMC6308234 (Scientific Reports, 2018).

What was measured:
[1] = molecular target: T1, DENV-1 nonstructural protein 1 (NS1), recombinant (Dengue virus 1, strain Nauru/West …, UniProt P17763); experiment: SPR; conditions: both partners purified
T1 construct: also called DENV-1 NS1; NS1 from DENV-1; source: bought: Native Antigen Company (recombinant)

[2] = molecular target: T2, DENV-2 nonstructural protein 1 (NS1), recombinant (Dengue virus 2, strain …, UniProt P29990); experiment: SPR; conditions: both partners purified
T2 construct: also called DENV-2 NS1; NS1 from DENV-2; source: bought: Native Antigen Company (recombinant)

[3] = molecular target: T3, DENV-3 nonstructural protein 1 (NS1), recombinant (Dengue virus 3, strain Sri …, UniProt Q6YMS4); experiment: SPR; conditions: both partners purified
T3 construct: also called DENV-3 NS1; NS1 from DENV-3; source: bought: Native Antigen Company (recombinant)

[4] = molecular target: T4, DENV-4 nonstructural protein 1 (NS1), recombinant (Dengue virus 4, strain …, UniProt P09866); experiment: SPR; conditions: both partners purified
T4 construct: also called DENV-4 NS1; NS1 from DENV-4; source: bought: Native Antigen Company (recombinant)

[5] = molecular target: T1, DENV-1 nonstructural protein 1 (NS1), …; experiment: SPR; conditions: both partners purified; remark: listed apart in the source
[6] = molecular target: T2, DENV-2 nonstructural protein 1 (NS1), …; experiment: SPR; conditions: both partners purified; remark: listed apart in the source
[7] = molecular target: T3, DENV-3 nonstructural protein 1 (NS1), …; experiment: SPR; conditions: both partners purified; remark: listed apart in the source
[8] = molecular target: T4, DENV-4 nonstructural protein 1 (NS1), …; experiment: SPR; conditions: both partners purified; remark: listed apart in the source
[9] = molecular target: T5, DENV-2 nonstructural protein 1 (NS1), recombinant (dengue virus serotype 2 (DENV-2)); experiment: SPR; sdAb immobilized
T5 chain: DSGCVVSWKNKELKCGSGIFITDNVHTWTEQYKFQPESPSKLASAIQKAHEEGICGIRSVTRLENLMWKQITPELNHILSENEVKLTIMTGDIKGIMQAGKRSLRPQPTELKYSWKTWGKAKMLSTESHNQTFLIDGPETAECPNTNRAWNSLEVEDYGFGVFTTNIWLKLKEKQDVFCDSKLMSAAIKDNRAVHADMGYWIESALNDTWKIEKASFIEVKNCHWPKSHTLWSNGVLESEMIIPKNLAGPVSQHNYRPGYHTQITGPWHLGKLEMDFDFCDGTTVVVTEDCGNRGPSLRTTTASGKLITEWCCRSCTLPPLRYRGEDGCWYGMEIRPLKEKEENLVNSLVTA

[10] = molecular target: T6, DENV-1 nonstructural protein 1 (NS1), recombinant (dengue virus serotype 1 (DENV-1)); experiment: SPR; sdAb immobilized
T6 chain: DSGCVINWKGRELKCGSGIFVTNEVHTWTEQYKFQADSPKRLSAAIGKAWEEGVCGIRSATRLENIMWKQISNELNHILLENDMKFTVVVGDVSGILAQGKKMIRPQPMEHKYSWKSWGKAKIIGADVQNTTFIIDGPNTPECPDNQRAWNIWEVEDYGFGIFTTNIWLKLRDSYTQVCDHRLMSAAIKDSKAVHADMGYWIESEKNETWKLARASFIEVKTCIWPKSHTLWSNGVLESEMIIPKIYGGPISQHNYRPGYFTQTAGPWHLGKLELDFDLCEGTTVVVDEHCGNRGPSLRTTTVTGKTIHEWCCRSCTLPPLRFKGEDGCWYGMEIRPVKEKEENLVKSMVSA

[11] = molecular target: T5, DENV-2 nonstructural protein 1 (NS1), …; experiment: SPR; sdAb immobilized
[12] = molecular target: T6, DENV-1 nonstructural protein 1 (NS1), …; experiment: SPR; NS1 immobilized
[13] = molecular target: T7, DENV-4 nonstructural protein 1 (NS1), recombinant (dengue virus serotype 4 (DENV-4)); experiment: SPR; NS1 immobilized
T7 chain: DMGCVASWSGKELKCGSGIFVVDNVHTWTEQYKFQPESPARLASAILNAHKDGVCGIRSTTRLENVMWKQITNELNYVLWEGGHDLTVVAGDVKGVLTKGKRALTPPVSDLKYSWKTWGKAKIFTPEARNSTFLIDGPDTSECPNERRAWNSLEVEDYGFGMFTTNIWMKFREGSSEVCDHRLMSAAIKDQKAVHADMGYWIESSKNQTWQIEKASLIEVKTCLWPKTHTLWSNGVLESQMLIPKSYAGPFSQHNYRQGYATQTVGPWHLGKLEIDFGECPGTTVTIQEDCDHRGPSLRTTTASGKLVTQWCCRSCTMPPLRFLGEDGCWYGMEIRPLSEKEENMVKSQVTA

[14] = molecular target: T5, DENV-2 nonstructural protein 1 (NS1), …; experiment: SPR; NS1 immobilized
[15] = molecular target: T8, DENV-3 nonstructural protein 1 (NS1), recombinant (dengue virus serotype 3 (DENV-3)); experiment: SPR; NS1 immobilized
T8 chain: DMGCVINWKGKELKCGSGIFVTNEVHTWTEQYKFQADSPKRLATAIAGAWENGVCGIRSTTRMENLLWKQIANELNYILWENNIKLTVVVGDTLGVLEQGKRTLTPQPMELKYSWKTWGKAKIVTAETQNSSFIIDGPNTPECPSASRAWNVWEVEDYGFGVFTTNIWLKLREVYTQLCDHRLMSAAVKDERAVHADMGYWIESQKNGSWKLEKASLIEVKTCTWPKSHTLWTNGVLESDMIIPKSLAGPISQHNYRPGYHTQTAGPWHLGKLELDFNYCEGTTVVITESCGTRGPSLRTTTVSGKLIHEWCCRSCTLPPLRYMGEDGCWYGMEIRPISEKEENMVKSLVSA

[16] = molecular target: T2, DENV-2 nonstructural protein 1 (NS1), …; experiment: MagPlex (Luminex) bead assay, direct binding; conditions: both partners purified

B1: sdAb DC7 (VHH)
VHH: EVQLQASGGGSVQAGGSLRLSCAHSSITVPDYTIGWYRRAPGKGGEEVSLISMHGGRTWYAGSVKGRFAISRDSVKNTVYLQMNNLKPEDTDIYYCGGTTFGLAAAPNEYDSWGQGSQVTVSS
notes: source: E. coli Turner (DE3), pET22b, periplasmic, purified (Ni-Sepharose, SEC)
In the case of B1, the Kd [1] is reported as 9.1 nM, the Kd [2] is reported as 2.6 nM and the Kd [3] is reported as 1.2 nM. The Kd [4] was 2.2 nM, the Kd [5] was 0.8 nM and the Kd [6] was 0.6 nM. For the same binder, the Kd [7] was 1.7 nM, the Kd [8] was 0.7 nM and the Kd [9] was 0.556 nM. For the same binder, the koff [10] was 0.00021 s⁻¹ and the koff [11] was 0.000155 s⁻¹.

B2: sdAb DD7 (VHH)
VHH: EVQLVQSGGGSVQAGGSLRLSCAHSSITVPDYTIGWFRRAPGKGGEEVSLISMHGGRSWYAGSVKGRFAISRDSVKNTVYLQMNNLKPEDTDIYYCGGTTFGLAAAPNEYDSWGQGSQVTVSS
notes: as for B1
For B2, the Kd [1] was 5.4 nM, the Kd [2] was 20.3 nM and the Kd [3] was 7 nM. The Kd [4] was 2.4 nM, the Kd [5] was 1.7 nM and the Kd [6] was 1.5 nM. The Kd [7] was 2.4 nM, the Kd [8] was 1.1 nM and the koff [10] was 0.000423 s⁻¹. It also gave a koff [11] of 0.000435 s⁻¹.

B3: sdAb DD6 (VHH)
VHH: EVQLQASGGGSVQAGGSLRLSCAHSSITVPDYTIGWYRRAPGKGGEEVSLISMHGGRTWYAGSVKGRFAISRDSVKNTVYLQMNNLKPEDTDIYYCGGTTFGLAAAPNEYDSWGQGSQVTVSS
notes: as for B1
B3 showed a Kd [1] of 7.6 nM, a Kd [2] of 2 nM and a Kd [3] of 1.1 nM. For the same binder, the Kd [4] was 2.5 nM.

B4: sdAb DC4 (VHH)
VHH: EVQLQASGGGLVQAGGSLRLSCAASERTFSHYFVGWFRQAPGKEREFVARITWSGSNVEYEDAVKDRFTLSSDNAKNTVYLHMNSLKPEDTAVYYCAAANTIWTPTIRDYNVWGQGTQVTVSS
notes: as for B1
Work on B4 yielded a Kd [1] of 62 nM, a Kd [2] of 42.1 nM and a Kd [3] of 31.6 nM. The Kd [4] was 43 nM, the koff [12] was 0.00889 s⁻¹ and the koff [13] was 0.00501 s⁻¹. For the same binder, the koff [14] was 0.00604 s⁻¹ and the koff [15] was 0.00741 s⁻¹.

B5: sdAb DD1 (VHH)
VHH: EVQLQASGGGLVQAGGSLRVSCAATGIAFASYAVAWYRQAPGKQREWVATVGGLGGTKYVDSVKGRFTISRDNAKNAVTLQMNSLKPEDTAVYYCAAVEWDDGHYYWDTWGQGTRVTVSA
notes: as for B1
Binder B5 has a Kd [1] of 28.5 nM, a Kd [2] of 15 nM and a Kd [3] of 85.8 nM. For the same binder, the Kd [4] was 7.8 nM, the Kd [5] was 2.2 nM and the Kd [6] was 2.3 nM. For the same binder, the Kd [7] was 17.7 nM, the Kd [8] was 0.6 nM and the koff [10] was 0.000206 s⁻¹. It also gave a koff [11] of 0.000182 s⁻¹.

B6: sdAb DH4 (VHH)
VHH: DVQLQASGGGVVQAGGSLRVSCAATGIAFASYAVAWYRQAPGKQREWVATVGGLGGTKYVDSVRGRFTISRDNAKNAVTLQMNSLKPEDTAVYYCAAVEWDDGHYYWDTWGQGTRVTVSA
notes: as for B1
With B6 the Kd [1] was 10.3 nM, the Kd [2] was 8.5 nM and the Kd [3] was 23.8 nM. It also gave a Kd [4] of 8.5 nM.

B7: sdAb DD5 (VHH)
VHH: EVQLQASGGGLVQAGGSLRLSCAASGRAFSSETMGWFRQAPGKEREFVAAIWRIGGSTYNTDYADSVKGRFAISADRAKNTVDLQMNTLKPEDTAVYYCAGKMRGRSVNLYDYDYWGQGTQVTVSS
notes: as for B1
Binder B7 has a Kd [1] of 2.8 nM, a Kd [2] of 4.5 nM and a Kd [3] of 3.2 nM. It also gave a Kd [4] of 24 nM, a Kd [5] of 4.2 nM and a Kd [6] of 0.9 nM. The Kd [7] was 25.1 nM, the Kd [8] was 6.2 nM and the koff [12] was 0.000383 s⁻¹. It also gave a koff [13] of 0.00193 s⁻¹, a koff [14] of 0.000347 s⁻¹ and a koff [15] of 0.000269 s⁻¹. For the same binder, the koff [10] was 0.000318 s⁻¹ and the koff [11] was 7.99e-05 s⁻¹.

B8: sdAb DD9 (VHH)
VHH: EVQLQASGGGLVQAGGSLRVSCAASGIAFTNYALAWYRQPPGKQREWVATVGVLGGTKYADSVKGRFAISRDNAKNTVILQMNSLKPVDTAVYFCAAVEWSNGRYYWDSWGQGTQVTVSA
notes: as for B1
B8 showed a Kd [1] of 18 nM, a Kd [2] of 6.7 nM and a Kd [3] of 21.8 nM. For the same binder, the Kd [4] was 34.8 nM, the Kd [5] was 2.7 nM and the Kd [6] was 3.5 nM. For the same binder, the Kd [7] was 3.1 nM, the Kd [8] was 7.1 nM and the koff [12] was 0.00141 s⁻¹. The koff [13] was 0.00428 s⁻¹, the koff [14] was 0.000545 s⁻¹ and the koff [15] was 0.000951 s⁻¹. For the same binder, the koff [10] was 0.000289 s⁻¹ and the koff [11] was 0.00034 s⁻¹.

B9: sdAb DH12 (VHH)
VHH: EVQLVESGGGSVQAGGSLRLSCAASERTFSYYFMGWFRQAPGKEREWVARIRWNGDGADYTDAVKDRFTISSDHAKNTVYLQMNSLKPEDTAVYYCAAANSIWKPTTRDYNYWGQGTQVSVSS
notes: as for B1
Work on B9 yielded a Kd [1] of 14.4 nM, a Kd [2] of 9.8 nM and a Kd [3] of 12.4 nM. For the same binder, the Kd [4] was 20.9 nM, the koff [12] was 0.00658 s⁻¹ and the koff [13] was 0.00604 s⁻¹. It also gave a koff [14] of 0.00333 s⁻¹ and a koff [15] of 0.00323 s⁻¹.

B10: sdAb DB5 (VHH)
VHH: DVQLQASGGGLVQDGGSLRLSCAASGLGFRIHSMGWYRQAPGKARDLVAVITDSGQTNYAPSVKGRFTISRESAGNTVYLQMNSLKPDDTAVYYCAVTTWDPHSYWGQGTQVTVSS
notes: as for B1
With B10 the binding result [1] was “no binding (tested: typically up to 300 nM)”, the binding result [2] was “no binding (tested: typically up to 300 nM)” and the Kd [3] was 4.4 nM. For the same binder, the binding result [4] was “no binding (tested: typically up to 300 nM)” and the Kd [7] was 1.6 nM.

B11: biotinylated sdAb DB5 (VHH)
VHH: DVQLQASGGGLVQDGGSLRLSCAASGLGFRIHSMGWYRQAPGKARDLVAVITDSGQTNYAPSVKGRFTISRESAGNTVYLQMNSLKPDDTAVYYCAVTTWDPHSYWGQGTQVTVSS
notes: also called Bt-DB5
B11: no binding [16].
